Source: the supplement of paper PMC10567573

B1: MYBL2 (parent)
chain: IAKHLKGRLGKQCRERWHNHLNPE
B2: NET1 (parent)
chain: PTPAKRRSSALWSEMLDITMKESL

Variants of: B1
Assay: protein stability index of a GFP-peptide fusion (GPS, HEK-293T) (PSI 1-6); higher = more stable
Conditions: c terminus: a fixed tail appended
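Also: lentivirally expressed fusions sorted by FACS into six bins by GFP to DsRed ratio, PSI derived from sequencing read proportions per bin multiplied by bin number.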

Protein stability index of substitutions, site by site:
H4: K 2.12; R 2.17; M 1.83; S 1.73; T 1.87; P 2.15; N 1.57; C 3.5; V 3.2; E 2.04; A 2.33; D 2.74; F 2.52; L 2.33; Q 2.27; G 2.2
A2: S 2.1; Y 1.76; G 1.95; N 2.2; C 1.8; L 3.74; R 2.53; D 2.15; I 1.59; E 2.16; M 1.6; V 1.53; K 2.12; P 1.75; Q 2.03; H 2.04; W 1.64; T 2.37
K3: V 2.9; R 2.03; Q 2.96; W 1.95; L 2.34; F 2.46; D 2.3; N 1.8; S 1.44; T 1.81; P 1.93; Y 2.17; H 2.32; G 1.79; C 2.25; M 1.81; I 1.51; E 2; A 2.84
I1: S 2.17; C 1.49; L 1.67; P 2.6; R 2.1; M 2.58; Y 1.56; H 2.19; G 2.4; N 2.45; V 2.54; D 2.06; W 1.36; E 2.53; F 2.7; T 2.64; Q 2.64; A 2.37; K 2.18

Variants of: B2
Assay: as above
Conditions: c terminus: a fixed tail appended

Protein stability index, by site and new letter:
W12: S 4.09; K 3.74; P 3.9; Y 2.78; C 4.32; D 5.38; I 3.5; G 4.59; H 3.62; Q 4.46; M 3.51; E 4.65; V 3.65; F 3.26; N 4.79; A 4.09; T 4.19; L 3.31
L24: Y 1.88; M 2.28; F 1.89; I 2.29; A 2.59; W 1.36; N 3.01; V 2.33; D 2.48; E 1.31; C 2.6; T 2.2; G 2.47; K 3.05; Q 1.92; P 2.85
S13: A 1.42; Q 1.12; R 2.42; F 1.75; I 2.13; D 3.58; M 2.64; P 2.71; K 2.34; N 2.49; H 2.88; Y 2.09; G 2.86; W 3.21
L11: T 1.71; K 1.62; G 4.11; Y 2.39; C 2.2; S 1.94; F 1.98; M 2.89; V 3.16; E 4.75; Q 2.27; N 3.5; D 4.29; H 3.62; P 2.75
E14: Y 2.2; R 2.43; W 1.69; H 2.2; L 1.5; N 2.11; T 1.93; C 1.15; A 1.55; D 2.75; V 1.25; S 2.35; F 1.58; I 3.13; P 3.15; K 2.87
I18: D 3.39; H 2.53; N 2.41; T 2.62; A 2.12; F 2.46; W 1.91; S 2.77; C 2; Y 2.97; G 3.36; E 2.9; R 2.84; V 3.12
M20: P 3.25; K 2.75; I 2.09; L 1.55; S 3.71; F 1.88; W 1.72; H 2.45; R 3.42; D 2.58; E 2.17; N 2.74; A 2.24; G 3.44; V 2.73; Y 2.64; T 2.76
E22: K 1.48; F 3.11; D 2.1; A 1; G 1.96; C 1.52; Q 2.57; M 2.6; Y 2.82; N 2.19; S 2.56; T 3.06; P 1.72; H 1.5; R 3.35; W 3.09
S9: A 2.2; V 1.88; N 2.21; Q 2.34; K 1.64; G 2.79; E 2.4; I 1.86; T 1.57; C 1.47; F 2.05
K21: E 2.8; S 2.73; F 1.17; N 3.67; A 2.38; D 3.04; Y 2.03; T 2.21; H 2.25; R 2.33; V 2.5; I 2.06
T19: G 2.36; A 1.74; I 1.04; L 1.66; P 1.7; N 3.39; H 2.43; D 2.37; R 1.81; W 1.61; Q 1.93; E 1.43
M15: P 4.32; L 2.91; N 3.13; I 2.07; V 2.9; F 2.04; C 2.38; Y 1.96; Q 3; G 3.83; K 2.82; W 2.05; D 3.91; H 2.38; E 4.77
R7: V 2.46; G 2.38; T 2.16; P 1.96; E 2.8; H 2.34; S 2.71; N 2.85; K 2.29; Y 2.39; M 2.15; F 2.03; W 2.36; Q 2.54
S8: F 1.68; Q 2.33; M 1.59; D 2.65; K 2.96; R 1.65; Y 2.28; W 2.25; T 2.9; I 2.03; P 2.01; E 2.63; G 2.53
L16: M 2.2; Y 2.19; H 2.85; Q 2.92; A 2.59; E 3.67; I 2.84; N 3.84; P 2.38; S 3.17; F 2.1; T 2.85; G 2.33
D17: I 2.31; L 2.07; R 2.27; Q 1.85; N 2.75; K 1.25; C 1.53; Y 2.83; P 2.83; M 1.26; T 1.92; G 2.25; F 2; E 2.07; A 1.95
A10: M 2.14; T 2.52; E 2.35; D 3.58; L 2.55; S 2.1; H 2.31; V 1.58; C 2.18; G 3.48; Y 1.63; F 2.02; N 2.67; P 2; K 2.83
S23: L 2.66; W 3.71; Q 2.47; Y 1.9; C 1.4; G 2.33; V 1.88; E 2.14; M 1.33; P 2.63; N 2.48; K 2.79; D 1.93; I 1.89; T 1.89; F 1.69
